Measurements: paper PMC9236607, “TUBA1A tubulinopathy mutants disrupt neuron morphogenesis and override XMAP215/Stu2 regulation of microtubule dynamics” (eLife, 2022)

B1: purified budding yeast tubulin heterodimer, Tub1-WT (internal 6X-His) with Tub2 [S. cerevisiae] / GST-TOG1/2 (the two TOG domains of Stu2 fused to a GST tag, Stu2 1-590) [S. cerevisiae] (parent complex)
chain 1: MREVISINVGQAGCQIGNACWELYSLEHGIKPDGHLEDGLSKPKGGEEGFSTFFHETGYGKFVPRAIYVDLEPNVIDEVRNGPYKDLFHPEQLISGKEDAANNYARGHYTVGREILGDVLDRIRKLADQCDGLQGFLFTHSLGGGTGSGLGSLLLEELSAEYGKKSKLEFAVYPAPQVSTSVVEPYNTVLTTHTTLEHADCTFMVDNEAIYDMCKRNLDIPRPSFANLNNLIAQVVSSVTASLRFDGSLNVDLNEFQTNLVPYPRIHFPLVSYSPVLSKSKAFHESNSVSEITNACFEPGNQMVKCDPRDGKYMATCLLYRGDVVTRDVQRAVEQVKNKKTVQLVDWCPTGFKIGICYEPPTATPNSQLATVDRAVCMLSNTTSIAEAWKRIDRKFDLMYAKRAFVHWYVGEGMEEGEFTEAREDLAALERDYIEVGADSYAEEEEF
chain 2: MREIIHISTGQCGNQIGAAFWETICGEHGLDFNGTYHGHDDIQKERLNVYFNEASSGKWVPRSINVDLEPGTIDAVRNSAIGNLFRPDNYIFGQSSAGNVWAKGHYTEGAELVDSVMDVIRREAEGCDSLQGFQITHSLGGGTGSGMGTLLISKIREEFPDRMMATFSVLPSPKTSDTVVEPYNATLSVHQLVEHSDETFCIDNEALYDICQRTLKLNQPSYGDLNNLVSSVMSGVTTSLRYPGQLNSDLRKLAVNLVPFPRLHFFMVGYAPLTAIGSQSFRSLTVPELTQQMFDAKNMMAAADPRNGRYLTVAAFFRGKVSVKEVEDEMHKVQSKNSDYFVEWIPNNVQTAVCSVAPQGLDMAATFIANSTSIQELFKRVGDQFSAMFKRKAFLHWYTSEGMDELEFSEAESNMNDLVSEYQQYQEATVEDDEEVDENGDFGAPQNQDEPITENFE
chain 3: MSGEEEVDYTTLPLEERLTYKLWKARLEAYKELNQLFRNSVGDISRDDNIQIYWRDPTLFAQYITDSNVVAQEQAIVALNSLIDAFASSSLKNAHNITLISTWTPLLVEKGLTSSRATTKTQSMSCILSLCGLDTSITQSVELVIPFFEKKLPKLIAAAANCVYELMAAFGLTNVNVQTFLPELLKHVPQLAGHGDRNVRSQTMNLIVEIYKVTGNNSDLLEEILFKKLKPIQVKDLHKLFAKVGDEPSSSKMLFEWEKRELEKKRSQEEEARKRKSILSNDEGEYQIDKDGDTLMGMETDMPPSKQQSGVQIDTFSMLPEETILDKLPKDFQERITSSKWKDRVEALEEFWDSVLSQTKKLKSTSQNYSNLLGIYGHIIQKDANIQAVALAAQSVELICDKLKTPGFSKDYVSLVFTPLLDRTKEKKPSVIEAIRKALLTICKYYDPLASSGRNEDMLKDILEHMKHKTPQIRMECTQLFNASMKEEKDGYSTLQRYLKDEVVPIVIQIVNDTQPAIRTIGFESFAILIKIFGMNTFVKTLEHLDNLKRKKIEETVKTLPNFSIASGSTHSTIETNKQTGPMENKFLLK

Variants of: B1
Assay: in vitro binding assay: unbound tubulin in supernatant after GST-TOG1/2 incubation, α-tubulin western blot; highest GST-TOG1/2 concentration, est. ~5000 nM read from x axis; low constant tubulin concentration; n=3 experiments; parent: 14; read off a plot

| screen value | Variant |
| --- | --- |
| ~85% | chain 1 V410A |
| ~71% | chain 1 V410I |
